# Experimental data: patent US20220213181A1 (Novartis, published 2022)
# Where a chain is given by its changes, count along the chain named.
# T1: Human ANGPTL3(17-460)-FLAG-His-Avi (human, UniProt Q9Y5C1 17-460, biotin on the C-terminal Avi tag (BirA))
# T1 construct: also called full length human ANGPTL3; hANGPTL3
# T1 sequence: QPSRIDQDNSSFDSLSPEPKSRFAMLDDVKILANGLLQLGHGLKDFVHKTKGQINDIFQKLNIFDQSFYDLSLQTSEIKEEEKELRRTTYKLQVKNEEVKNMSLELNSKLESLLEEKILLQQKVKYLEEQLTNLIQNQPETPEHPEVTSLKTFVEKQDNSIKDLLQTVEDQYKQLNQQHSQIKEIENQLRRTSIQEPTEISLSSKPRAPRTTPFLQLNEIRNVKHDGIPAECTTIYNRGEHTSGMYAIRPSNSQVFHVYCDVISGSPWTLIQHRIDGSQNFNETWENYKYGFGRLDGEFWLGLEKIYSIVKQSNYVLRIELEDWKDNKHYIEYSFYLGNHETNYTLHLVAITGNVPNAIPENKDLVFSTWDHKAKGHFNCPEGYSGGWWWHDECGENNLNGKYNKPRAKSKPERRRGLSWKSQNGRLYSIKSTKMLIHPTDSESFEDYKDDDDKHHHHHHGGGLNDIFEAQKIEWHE
# T2: Human ANGPTL4(26-406)-FLAG-His6-Avi (human, UniProt Q9BY76 24-406, biotin on the C-terminal Avi tag (BirA) where the protein is immobilised)
# T2 sequence: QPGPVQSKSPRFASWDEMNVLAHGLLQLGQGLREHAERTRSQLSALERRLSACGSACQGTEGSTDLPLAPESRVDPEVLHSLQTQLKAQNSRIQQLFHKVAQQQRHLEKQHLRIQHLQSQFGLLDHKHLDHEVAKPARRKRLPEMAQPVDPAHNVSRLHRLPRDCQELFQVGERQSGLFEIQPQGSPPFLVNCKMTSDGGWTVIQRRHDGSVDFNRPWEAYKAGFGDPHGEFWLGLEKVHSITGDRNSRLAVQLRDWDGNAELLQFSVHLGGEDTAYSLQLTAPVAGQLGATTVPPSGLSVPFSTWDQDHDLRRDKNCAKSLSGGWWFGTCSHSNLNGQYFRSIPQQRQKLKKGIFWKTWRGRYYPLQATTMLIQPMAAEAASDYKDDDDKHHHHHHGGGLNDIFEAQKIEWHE
# B1: NEG315 (antibody, human IgG1, kappa, V domains shown)
# VH: QVQLVQSGAEVKKPGASVKVSCKASGYTFTNYWITWVRQAPGQGLEWMGDFYPGGGNTNYNAKLQGRVTLTVDTSTSTAYMELRSLRSDDTAVYYCARSPPQVAPFDYWGQGTLVTVSS
# VL: DIQMTQSPSSLSASVGDRVTITCQASEYIYNWLGWYQQKPGKAPKLLISGASGLETGVPSRFSGSGSGKDYTFTISSLQPEDIATYYCQQYWSTPWTFGQGTKLEIKR
# notes: humanized, hIgG1/kappa, parental antibody 37P1
# B2: NEG319 (antibody, human IgG1, kappa, V domains shown)
# VH: B1 VH with N31S, Y32F, F51I, G56A, A62E, A104G
# VL: B1 VL with Y30I, G34A, S52T, T94I
# notes: humanized, hIgG1/kappa, parental antibody 14P18
# B3: NEG313 (antibody, human IgG1, kappa, V domains shown)
# VH: B1 VH with T30N, N57S
# VL: B1 VL with E27D, N31H
# notes: as for B1
# B4: NEG318 (antibody, human IgG1, kappa, V domains shown)
# VH: B1 VH with N31S, Y32F, F51I, G56A, N57T, A62E, A104G
# VL: B1 VL with E27D, N31H, G34A, G53S, T94I
# notes: as for B2
# B5: NEG276 (antibody, human IgG1, kappa)
# heavy: not shown
# light: EIVMTQSPATLSVSPGERATLSCKASQDIGSNLNWLQQKPGQAPRRLIYAVSNRGPGIPARFSGSRSGSEYTLTISSLQSEDFAVYYCLQYASSPWTFGQGTKVEIKRTVAAPSVFIFPPSDEQLKSGTASVVCLLNNFYPREAKVQWKVDNALQSGNSQESVTEQDSKDSTYSLSSTLTLSKADYEKHKVYACEVTHQGLSSPVTKSFNRGEC
# notes: humanized, hIgG1/kappa, parental antibody 19C16
# B6: NEG278 (antibody, human IgG1, kappa, V domains shown)
# VH: QVQLVQSGAEVKKPGASVKVSCKASAYTFTSSWMQWVRQAPGQGLEWMGEIDPSDNYANYNQKFQGRVTLTVDTSTSTAYMELSSLRSEDTAVYYCASGSYFSNFFDYWGQGTLVTVSS
# VL: EIVMTQSPATLSVSPGERATLSCKASQDIGSNLNWLQQKPGQAPRRLIYAASVREPGIPARFSGSRSGSEYTLTISSLQSEDFAVYYCLQYASSPWTFGQGTKVEIKR
# notes: as for B5
# B7: NEG310 (antibody, human IgG1, kappa, V domains shown)
# VH: QVQLVQSGAEVKKPGASVKVSCKASGYTFTSYTMHWVRQAPGQGLEWMGYINPSSGYTKYNQKFQGRVTMTADKSTSTAYMELSSLRSEDTAVYYCAEGWLLLAMDYWGQGTLVTVSS
# VL: EAVVTQSPATLSLSPGERATLSCRSSTGAVTTSNYAIWVQEKPGQAPRGLIGGTNNRAPGIPARFSGSLSGDDATLTISSLQPEDFAVYFCALWYSDHWVFGQGTKVEIKR
# notes: humanized, hIgG1/kappa, parental antibody 17B1
# B8: NEG276-LALA (antibody, human IgG1, kappa, L234A L235A)
# heavy: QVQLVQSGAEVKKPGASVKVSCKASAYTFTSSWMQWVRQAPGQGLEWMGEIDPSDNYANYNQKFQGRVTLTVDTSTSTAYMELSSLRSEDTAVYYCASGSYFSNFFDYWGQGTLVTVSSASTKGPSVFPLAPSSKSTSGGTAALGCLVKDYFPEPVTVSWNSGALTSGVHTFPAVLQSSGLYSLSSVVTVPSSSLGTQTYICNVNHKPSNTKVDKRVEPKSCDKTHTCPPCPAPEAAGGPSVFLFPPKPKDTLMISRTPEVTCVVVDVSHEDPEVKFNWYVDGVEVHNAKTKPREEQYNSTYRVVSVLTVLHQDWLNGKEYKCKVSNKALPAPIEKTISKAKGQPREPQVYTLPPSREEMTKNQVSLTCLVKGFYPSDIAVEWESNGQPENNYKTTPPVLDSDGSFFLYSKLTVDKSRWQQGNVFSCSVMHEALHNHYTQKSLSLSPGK
# light: B5 light
# Target: T1, Human ANGPTL3(17-460)-FLAG-His-Avi
# Test: direct ELISA on MSD streptavidin plate, biotinylated antigen immobilized at 1 nM, antibody at 1 nM, Sulfo-tagged anti-human IgG detection
# Description: Direct ELISA assays were conducted to characterize antibody binding specificity of selected antibodies of the invention. The assay was performed as follows. A 384-well streptavidin-coated Meso Scale Discovery (MSD) plate was blocked by incubating the plate with 50 μL Blocking Buffer (PBS, pH 7.4, 5% w/v bovine serum albumin) per well at 22° C. for 1 hour with constant shaking (600 rpm). The blocked MSD plate was then washed 3 times with Wash Buffer (PBS, pH 7.4 and 0.05% v/v Tween-20) using a plate washer (BioTek). Following washing, biotinylated human ANGPTL4 proteins diluted in Assay Buffer (PBS, pH 7.4 without CaCl₂ or MgCl₂, 0.5% w/v fatty acid-free bovine serum albumin and 0.02% v/v Tween-20) were immobilized on the surface by incubation at 1 nM concentration (15 μL per well) at 22° C. for one hour: full length human ANGPTL4 (hANGPTL4), human ANGPTL4 coiled-coil domain (hANGPTL4-CCD) and full length human ANGPTL3 (hANGPTL3). The plate was then washed 3 times as described earlier. Antibody diluted to 1 nM concentration in Assay Buffer was then applied to the MSD plate (15 μL per well), and the plate was incubated for 1 hour at 22° C. with constant shaking (600 rpm). Bound antibodies were detected by adding 15 μL per well of a 1:500 dilution of Sulfo-tagged goat anti-human IgG. The plate was then incubated for one hour with constant shaking (600 rpm). The plate was washed 3 times, and then 15 μL/well of 1× MSD read buffer T was added and the plate was developed using a Sector Imager 6000 (Meso Scale Discovery). The data were transferred to Microsoft Excel for analysis and plotted using GraphPad Prism v6. […] An ANGPTL3-specific reference antibody was used as a positive control for the ANGPTL3 binding assay (FIG. 2).
row,Binder,binding result
1,B1,no binding (tested: 1 nM)
2,B2,no binding (tested: 1 nM)
3,B3,no binding (tested: 1 nM)
4,B4,no binding (tested: 1 nM)
5,B5,no binding (tested: 1 nM)
6,B6,no binding (tested: 1 nM)
7,B7,no binding (tested: 1 nM)

# Target: T2, Human ANGPTL4(26-406)-FLAG-His6-Avi
# Test: cell-based or functional assay
row,Binder,EC50 of the antibody-mediated increase in lipoprotein lipase enzyme activity (reversal of LPL inhibition by ANGPTL4) [nM]
1,B1,3
2,B2,0.5
3,B3,3
4,B4,1.4
5,B5,0.6
6,B8,0.7
7,B6,0.7
8,B7,1.6
